Assay results: patent US20080207526A1
Where two headings read alike, the source gives them in different places.

T1: HLA-DR4 on antigen presenting cells (L cells transfected with DR4; Priess cells DRB1*0401/DRB4*0101) (human)
T1 chain 1: not shown
T1 chain 2: not shown

T2: recombinant water-soluble HLA-DR4 (DRA/DRB1*0401) (human)
T2 chain 1: not shown
T2 chain 2: not shown

T3: recombinant water-soluble HLA-DR1 (DRA/DRB1*0101) (human)
T3 chain 1: not shown
T3 chain 2: not shown


Columns and labels:
[1] = molecular target: recombinant water-soluble HLA-DR2 (DRB1*1501) (human)
[2] = molecular target: recombinant water-soluble HLA-DR4 (DRA/DRB1*0401) (human)
[3] = molecular target: recombinant water-soluble HLA-DR1 (DRA/DRB1*0101) (human)
[4] = molecular target: recombinant water-soluble HLA-DR1 (DRA/DRB1*0101) (human); remark: listed apart in the source
[5] = molecular target: recombinant water-soluble HLA-DR4 (DRA/DRB1*0401) (human); remark: listed apart in the source
[6] = molecular target: T1, HLA-DR4 on antigen presenting cells (L …); experiment: cell-based or functional assay
[7] = molecular target: T2, recombinant water-soluble HLA-DR4 …
[8] = molecular target: T3, recombinant water-soluble HLA-DR1 …
[9] = molecular target: T3, recombinant water-soluble HLA-DR1 …
[10] = molecular target: T2, recombinant water-soluble HLA-DR4 …

Molecule | inhibition of the DR4-restricted 3838 T cell clone (IL-2 secretion) [6] | affinity determined by competition with biotinylated competitor [7] | also measured
Copolymer 1, poly(Y,E,A,K) |  |  | percent of added YEAK in the bound fraction [1]: 80%; percent of added YEAK in the bound fraction [2]: > 95%; percent of added YEAK in the bound fraction [3]: > 95%; affinity determined by competition with biotinylated competitor [4]: 8 µM; affinity determined by competition with biotinylated competitor [5]: 2.5 µM
EAAYAAAAAAKAAAA (modifications not checked) [peptide SEQ ID NO: 16] | > 80% | 5 µM | 
AAKYEAAAAAKAAAA (modifications not checked) [peptide SEQ ID NO: 14] |  | 4 µM | 
AEKYAAAAAAKAAAA (modifications not checked) [peptide SEQ ID NO: 6] | > 80% |  | 
KEAYAAAAAAKAAAA (modifications not checked) [peptide SEQ ID NO: 10] |  | 4.5 µM | 
AAAYAAAAAAKAAAA (modifications not checked) [peptide SEQ ID NO: 5] |  | 7 µM | 
AEEYAAAAAAKAAAA (modifications not checked) [peptide SEQ ID NO: 11] | > 80% |  | 
AAKYAEAAAAKAAAA (modifications not checked) [peptide SEQ ID NO: 15] |  | 1.8 µM | affinity determined by competition with biotinylated competitor [8]: 16 µM; affinity determined by competition with biotinylated competitor [9]: 42 µM; affinity determined by competition with biotinylated competitor [10]: < 1 µM
AAEYAAAAAAKAAAA (modifications not checked) [peptide SEQ ID NO: 12] |  | 3.2 µM | affinity determined by competition with biotinylated competitor [9]: 47 µM
AKEYAAAAAAKAAAA (modifications not checked) [peptide SEQ ID NO: 7] |  | 4.5 µM | affinity determined by competition with biotinylated competitor [9]: 19 µM
EKAYAAAAAAKAAAA (modifications not checked) [peptide SEQ ID NO: 13] |  | 3.3 µM | 

Continued, in another order:

inhibition of the DR4-restricted 3838 T cell clone (IL-2 secretion) [6] | affinity determined by competition with biotinylated competitor [7] | Molecule | also measured
 | 1.8 µM | AAEYKAAAAAAAAAA (modifications not checked) [peptide SEQ ID NO: 26] | 
 | 1.3 µM | AYKAEAAAAAAAAAA (modifications not checked) [peptide SEQ ID NO: 35] | 
 | 2.2 µM | AKKYEAAAAAAAAAA (modifications not checked) [peptide SEQ ID NO: 21] | 
> 80% |  | AAKYEAAAAAAAAAA (modifications not checked) [peptide SEQ ID NO: 28] | 
 | 3 µM | AKYAEAAAAAAAAAA (modifications not checked) [peptide SEQ ID NO: 36] | 
> 80% | 1.8 µM | EKKYAAAAAAKAAAA (modifications not checked) [peptide SEQ ID NO: 17] | 
 | 4.4 µM | EAKYAAAAAAKAAAA (modifications not checked) [peptide SEQ ID NO: 18] | affinity determined by competition with biotinylated competitor [9]: 33 µM; affinity determined by competition with biotinylated competitor [10]: 3 µM
> 80% |  | AEKAYAAAAAAAAAA (modifications not checked) [peptide SEQ ID NO: 33] | affinity determined by competition with biotinylated competitor ([7]; remark: other sources report otherwise): < 1 µM
 | 3 µM | AEYAKAAAAAAAAAA (modifications not checked) [peptide SEQ ID NO: 32] | 
